Here are results for two molecules from US20220380409A1 (published 2022).

By EC50 is commonly meant the concentration that produces a half-maximal response. A high value points to a need for much substance. Usually Kd stands for the equilibrium constant for the complex coming apart.

The target of test [1] is T1, GST-PfLDH (UniProt Q27743 2-316). Put plainly: ELISA.
For test [2], the target named is T1, GST-PfLDH. Put plainly: sandwich ELISA. A general note: In an ELISA, binding on a coated surface is turned into a signal by an enzyme label.
The target in test [3] is GST-PvLDH (UniProt P84793 1-313). Put plainly: sandwich ELISA.
In test [4] the target is PfLDH protein (UniProt Q27743 2-316).

Ends that are not written are not given here.

B1: RCM cyclized version of the HWSAN (SEQ ID NO:11) peptide (peptide)
peptide: HWSAN
modifications: staple (positions not given here); also: RCM ring between olefin-bearing non-natural residues, places not given here, biotinylated
B1 showed an EC50 in test [1] of 2.57 nM.

B2: binary ligand hevwh-YLGHK (peptide)
peptide 1: HEVWH
peptide 2: YLGHK
modifications: not fully specified (bridges)
In the case of B2, the EC50 in test [2] was 15.1 nM; in test [3] it was 12 nM. In addition, in test [4], the Kd was ~10 nM.
